Experimental data from patent US20230265151A1, “GIP/GLP1 CO-AGONIST COMPOUNDS” (priority 2020, published 2023).

B1: Y-Aib-EGT-αMeF(2F)-TSDY-Aib-I-αMeL-LD-Orn-QAQ-Aib-Orn-FIK((2-[2-(2-Amino-ethoxy)-ethoxy]-acetyl)3-(γ-Glu)-CO-(CH2)12-CO2H)-αMeY-LIK((2-[2-(2-Amino-ethoxy)-ethox … (peptide)
peptide: YXEGTXTSDYXIXLDXQAQXXFIKXLIKGGPSSGAPPPS
modifications: Aib2, αMeF(2F)6, Aib11, αMeL13, Orn16, Aib20, Orn21, K24(Z1), αMeY25, K28(Z1), C-term NH2; Z1=AEEA3-(γ-Glu)-CO-(CH2)12-CO2H
B2: Y-Aib-EGT-αMeF(2F)-TSD-4Pal-Aib-I-αMeL-LD-Orn-QAQ-Aib-EFIK((2-[2-(2-Amino-ethoxy)-ethoxy]-acetyl)2-(γ-Glu)-CO-(CH2)12-CO2H)-αMeY-LIK((2-[2-(2-Amino-ethoxy)-etho … (peptide)
peptide: YXEGTXTSDXXIXLDXQAQXEFIKXLIKGGPSSGAPPPS
modifications: Aib2, αMeF(2F)6, 4Pal10, Aib11, αMeL13, Orn16, Aib20, K24(Z1), αMeY25, K28(Z1), C-term NH2; Z1=AEEA2-(γ-Glu)-CO-(CH2)12-CO2H
B3: Y-Aib-EGT-αMeF(2F)-TSD-aMeV-SI-αMeL-LD-Orn-K((2-[2-(2-Amino-ethoxy)-ethoxy]-acetyl)2-(γ-Glu)-CO-(CH2)12-CO2H)AQ-Aib-EFI-(D-Glu)-αMeY-LIEGGK((2-[2-(2-Amino-ethox … (peptide)
peptide: YXEGTXTSDXSIXLDXKAQXEFIXXLIEGGKSSGAPPPS
modifications: Aib2, αMeF(2F)6, αMeV10, αMeL13, Orn16, K17(Z1), Aib20, D-Glu24, αMeY25, K31(Z1), C-term NH2; Z1=AEEA2-(γ-Glu)-CO-(CH2)12-CO2H
B4: Y-Aib-EGT-αMeF(2F)-TSD-4Pal-SI-αMeL-LD-Orn-K((2-[2-(2-Amino-ethoxy)-ethoxy]-acetyl)2-(γ-Glu)-CO-(CH2)12-CO2H)AQ-Aib-E-3FPhe-I-(D-Glu)-αMeY-LIEGGK((2-[2-(2-Amino … (peptide)
peptide: YXEGTXTSDXSIXLDXKAQXEXIXXLIEGGKSSGAPPPS
modifications: Aib2, αMeF(2F)6, 4Pal10, αMeL13, Orn16, K17(Z1), Aib20, 3FPhe22, D-Glu24, αMeY25, K31(Z1), C-term NH2; Z1=AEEA2-(γ-Glu)-CO-(CH2)12-CO2H
B5: Y-Aib-EGT-αMeF(2F)-TSD-4Pal-SI-αMeL-LD-Orn-K((2-[2-(2-Amino-ethoxy)-ethoxy]-acetyl)2-(γ-Glu)-(10-(4-carboxyphenoxy)decanoyl))AQ-Aib-EFIK((2-[2-(2-Amino-ethoxy)- … (peptide)
peptide: YXEGTXTSDXSIXLDXKAQXEFIKXLIEGGPSSGAPPPS
modifications: Aib2, αMeF(2F)6, 4Pal10, αMeL13, Orn16, K17(Z1), Aib20, K24(Z1), αMeY25, C-term NH2; Z1=AEEA2-(γ-Glu)-(10-(4-carboxyphenoxy)decanoyl)
B6: Y-Aib-EGT-αMeF(2F)-TSD-4Pal-Aib-I-αMeL-LD-Orn-K((2-[2-(2-Amino-ethoxy)-ethoxy]-acetyl)-(γ-Glu)-CO-(CH2)12-CO2H)AQ-Aib-EFI-(D-Glu)-αMeY-LIK((2-[2-(2-Amino-ethoxy … (peptide)
peptide: YXEGTXTSDXXIXLDXKAQXEFIXXLIKGGPSSGAPPPS
modifications: Aib2, αMeF(2F)6, 4Pal10, Aib11, αMeL13, Orn16, K17(Z1), Aib20, D-Glu24, αMeY25, K28(Z1), C-term NH2; Z1=AEEA-(γ-Glu)-CO-(CH2)12-CO2H
B7: Y-Aib-EGT-αMeF(2F)-TSD-4Pal-SI-αMeL-LD-Orn-K((2-[2-(2-Amino-ethoxy)-ethoxy]-acetyl)2-(γ-Glu)-CO-(CH2)12-CO2H)AQ-Aib-E-(3ClPhe)-I-(D-Glu)-αMeY-LIEGGK((2-[2-(2-Am … (peptide)
peptide: YXEGTXTSDXSIXLDXKAQXEXIXXLIEGGKSSGAPPPS
modifications: Aib2, αMeF(2F)6, 4Pal10, αMeL13, Orn16, K17(Z1), Aib20, 3ClPhe22, D-Glu24, αMeY25, K31(Z1), C-term NH2; Z1=AEEA2-(γ-Glu)-CO-(CH2)12-CO2H
B8: Y-Aib-EGT-αMeF(2F)-TSD-4Pal-SI-αMeL-LD-Orn-K((2-[2-(2-Amino-ethoxy)-ethoxy]-acetyl)2-(γ-Glu)-CO-(CH2)10-CO2H)AQ-Aib-EFI-(D-Glu)-αMeY-LIEGGK((2-[2-(2-Amino-ethox … (peptide)
peptide: YXEGTXTSDXSIXLDXKAQXEFIXXLIEGGKSSGAPPPS
modifications: Aib2, αMeF(2F)6, 4Pal10, αMeL13, Orn16, K17(Z1), Aib20, D-Glu24, αMeY25, K31(Z1), C-term NH2; Z1=AEEA2-(γ-Glu)-CO-(CH2)10-CO2H
B9: Y-Aib-EGT-αMeF(2F)-TSDK((2-[2-(2-Amino-ethoxy)-ethoxy]-acetyl)2-(γ-Glu)-CO-(CH2)12-CO2H)SI-αMeL-LD-Orn-K((2-[2-(2-Amino-ethoxy)-ethoxy]-acetyl)2-(γ-Glu)-CO-(CH2 … (peptide)
peptide: YXEGTXTSDKSIXLDXKAQXEFIXXLIEGGPSSGAPPPS
modifications: Aib2, αMeF(2F)6, K10(Z1), αMeL13, Orn16, K17(Z1), Aib20, D-Glu24, αMeY25, C-term NH2; Z1=AEEA2-(γ-Glu)-CO-(CH2)12-CO2H
B10: Y-Aib-EGT-αMeF(2F)-TSD-4Pal-SI-αMeL-LD-Orn-K((2-[2-(2-Amino-ethoxy)-ethoxy]-acetyl)2-(γ-Glu)-CO-(CH2)12-CO2H)AQ-Aib-EFI-(D-Glu)-αMeY-LIEGGP S SGAPPP … (peptide)
peptide: YXEGTXTSDXSIXLDXKAQXEFIXXLIEGGPSSGAPPPSK
modifications: Aib2, αMeF(2F)6, 4Pal10, αMeL13, Orn16, K17(Z1), Aib20, D-Glu24, αMeY25, K40(Z1), C-term NH2; Z1=AEEA2-(γ-Glu)-CO-(CH2)12-CO2H
B11: Y-Aib-EGT-αMeF(2F)-TSD-4Pal-Aib-I-αMeL-LD-Orn-K((2-[2-(2-Amino-ethoxy)-ethoxy]-acetyl)-(γ-Glu)-CO-(CH2)12-CO2H)AQ-Aib-EFI-(D-Glu)-αMeY-LIEGGPSSGAPPPSK((2-[2-(2- … (peptide)
peptide: YXEGTXTSDXXIXLDXKAQXEFIXXLIEGGPSSGAPPPSK
modifications: Aib2, αMeF(2F)6, 4Pal10, Aib11, αMeL13, Orn16, K17(Z1), Aib20, D-Glu24, αMeY25, K40(Z1), C-term NH2; Z1=AEEA-(γ-Glu)-CO-(CH2)12-CO2H
B12: Y-Aib-EGT-αMeF(2F)-TSD-4Pal-Aib-I-αMeL-LD-Orn-QAQ-Aib-K((2-[2-(2-Amino-ethoxy)-ethoxy]-acetyl)2-(γ-Glu)-CO-(CH2)12-CO2H)FI-(D-Glu)-αMeY-LIEGGPSSGAPPPSK((2-[2-(2 … (peptide)
peptide: YXEGTXTSDXXIXLDXQAQXKFIXXLIEGGPSSGAPPPSK
modifications: Aib2, αMeF(2F)6, 4Pal10, Aib11, αMeL13, Orn16, Aib20, K21(Z1), D-Glu24, αMeY25, K40(Z1), C-term NH2; Z1=AEEA2-(γ-Glu)-CO-(CH2)12-CO2H

Key:
human GIP receptor = molecular target: T1, human GIP receptor (human, UniProt P48546 22-466); experiment: SPA competition vs [125I]-GIP, hGIPR membranes
T1 construct: whole, on cells; also called hGIPR; human glucose-dependent insulinotropic polypeptide receptor
T1 sequence (looked up): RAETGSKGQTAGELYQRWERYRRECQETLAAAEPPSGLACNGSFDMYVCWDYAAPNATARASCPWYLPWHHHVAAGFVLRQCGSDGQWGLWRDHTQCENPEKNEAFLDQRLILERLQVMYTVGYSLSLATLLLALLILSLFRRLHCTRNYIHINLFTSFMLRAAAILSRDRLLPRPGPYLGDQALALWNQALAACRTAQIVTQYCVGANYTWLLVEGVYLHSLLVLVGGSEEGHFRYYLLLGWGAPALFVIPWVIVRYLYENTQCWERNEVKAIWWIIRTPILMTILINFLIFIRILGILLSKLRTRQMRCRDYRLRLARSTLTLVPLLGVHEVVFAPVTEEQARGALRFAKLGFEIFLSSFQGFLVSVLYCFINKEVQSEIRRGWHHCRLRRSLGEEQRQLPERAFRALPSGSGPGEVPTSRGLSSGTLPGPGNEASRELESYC
Description: The binding buffer contains 25 mM HEPES, pH 7.4, 2.5 mM CaCl₂, 1 mM MgCl₂, 0.1% (w/v) bacitracin, 0.003% (w/v) TWEEN®-20, and Roche Complete™ Protease Inhibitors without EDTA. […] Plates are sealed and mixed on a plate shaker (setting 6) for 1 minute and read with a PerkinElmer Trilux MicroBeta® scintillation counter after 2.5 to 12 hours of incubation/settling time at room temperature.
(§1) Data are analyzed using four-parameter (curve maximum, curve minimum, IC₅₀, Hill slope) nonlinear regression routines (Genedata Screener, version 12.0.4, Genedata AG, Basal, Switzerland). […] Values for Kᵢ are reported as the geometric mean, with error expressed as the standard error of the mean (SEM) and n is equal to the number of independent replicates (determined in assays performed on different days). Geometric Means are calculated as follows: […]

human GLP-1 receptor = molecular target: T2, human GLP-1 receptor (human, UniProt P43220 24-463); experiment: SPA competition vs [125I]-GLP-1, hGLP-1R membranes
T2 construct: whole, on cells; also called hGLP-1R; human glucagon-like peptide-1 receptor
Description: The binding buffer contains 25 mM HEPES, pH 7.4, 2.5 mM CaCl₂, 1 mM MgCl₂, 0.1% (w/v) bacitracin, 0.003% (w/v) TWEEN®-20, and Roche Complete™ Protease Inhibitors without EDTA.
as §1

Binder | Ki (human GIP receptor) [nM] | Ki (human GLP-1 receptor) [nM]
B1 | 0.0249 | 0.246
B2 | 0.0375 | 1.33
B3 | 0.0832 | 1.16
B4 | 0.161 | 1.52
B5 | 0.0314 | 0.777
B6 | 0.0747 | 2.17
B7 | 0.132 | 1.59
B8 | 0.145 | 2.99
B9 | 0.378 | 6.48
B10 | 0.0807 | 3.13
B11 | 0.091 | 2.07
B12 | 0.0912 | 0.947
